As a reminder, the EC50 (read off the curve) is the midpoint of the concentration-response curve.

B1: 2-A6 (antibody, V domains shown)
VH: QVTLRESGPALVKPTQTLTLTCTFSGFSLNTRGMSVSWIRQPPGKALEWLALIDWEDDKFYRTSLMTRLTISKDIFKNQVVLTMTNVDPVDTGTYYCARTYSVGVKYFGMDVWGQGTTVTVSS
VL: SSELTQDPAVSVALGQTVRITCQGDSLRNYYASWYRQEPGQAPILLIYGGNYRPSGIPDRFSGSSSGNTASLTITGAQAEDEADYYCNSRDSSGNHVVFGGGTKLTVL
B2: 22-E7 (antibody, V domains shown)
VH: QVQLVESGGGVVQPGTSLRLSCAASGFTFNNYPMFWVRQAPGKGLEWLALISYDGNHKVYADSVKGRFTISRDNAKNTLYLQMHSLRAEDTALYYCASDLSGAEDSWGQGTLVTVSS
VL: QSALTQPASVSGSPGQSITISCTGTSSDVGGYNYVSWYQQHPGKAPKLLIYEVSNRPSGVSNRFSGSKSGNTASLTISGLQAEDEADYYCSSYTSSSTWVFGGGTKLTVL
B3: 22-F7 (antibody, V domains shown)
VH: QVQLVESGGGVVQPGRSLRLSCAASGFSFTNYGMHWVRQAPGKGLEWVAVISYDGSIKYYEDSLKGRFTVSRDNSKKTLYLQMNSLRAEDTAVYYCTRERGTGIDYWGLGTLVTVSS
VL: QSALTQPASVSGYPGQSITLSCTGTKSDIGAYNYVSWYQQHPGKAPKLMVYDVSNRPSGLSNRFSGSKSDNTASLTISGLQAEDEAHYYCSSYTTSGTVVFGGGTKVTVL

The experiment has as its target SARS-CoV-2 Spike trimer (recombinant, wild type) (SARS-CoV-2), P0DTC2. In words: ELISA on plate-adsorbed recombinant Spike. The following applies: remark: other sources report otherwise. (An ELISA detects its analyte on a solid surface through an enzyme-linked reagent.)
Turning to B1, the half-maximal effective concentration (EC50 (read off the curve)) was found to be 0.007 mg/L.

For B2, the 50% effective concentration (EC50 (read off the curve)) was determined as 0.02 mg/L.

Turning to B3, the EC50 (read off the curve) was 0.01 mg/L.

The values are drawn from patent US20230250158A1.
